In paper PMC6868236:

Molecular target: Tra1 (S. pombe) (UniProt Q9HFE8)
Experiment: Spt7-TAP tandem affinity purification of SAGA, LC-MS/MS label-free quantification (LFQ)
Settings: parent: 1.0

Chain of UniProt Q9HFE8 (Q9HFE8 whole entry): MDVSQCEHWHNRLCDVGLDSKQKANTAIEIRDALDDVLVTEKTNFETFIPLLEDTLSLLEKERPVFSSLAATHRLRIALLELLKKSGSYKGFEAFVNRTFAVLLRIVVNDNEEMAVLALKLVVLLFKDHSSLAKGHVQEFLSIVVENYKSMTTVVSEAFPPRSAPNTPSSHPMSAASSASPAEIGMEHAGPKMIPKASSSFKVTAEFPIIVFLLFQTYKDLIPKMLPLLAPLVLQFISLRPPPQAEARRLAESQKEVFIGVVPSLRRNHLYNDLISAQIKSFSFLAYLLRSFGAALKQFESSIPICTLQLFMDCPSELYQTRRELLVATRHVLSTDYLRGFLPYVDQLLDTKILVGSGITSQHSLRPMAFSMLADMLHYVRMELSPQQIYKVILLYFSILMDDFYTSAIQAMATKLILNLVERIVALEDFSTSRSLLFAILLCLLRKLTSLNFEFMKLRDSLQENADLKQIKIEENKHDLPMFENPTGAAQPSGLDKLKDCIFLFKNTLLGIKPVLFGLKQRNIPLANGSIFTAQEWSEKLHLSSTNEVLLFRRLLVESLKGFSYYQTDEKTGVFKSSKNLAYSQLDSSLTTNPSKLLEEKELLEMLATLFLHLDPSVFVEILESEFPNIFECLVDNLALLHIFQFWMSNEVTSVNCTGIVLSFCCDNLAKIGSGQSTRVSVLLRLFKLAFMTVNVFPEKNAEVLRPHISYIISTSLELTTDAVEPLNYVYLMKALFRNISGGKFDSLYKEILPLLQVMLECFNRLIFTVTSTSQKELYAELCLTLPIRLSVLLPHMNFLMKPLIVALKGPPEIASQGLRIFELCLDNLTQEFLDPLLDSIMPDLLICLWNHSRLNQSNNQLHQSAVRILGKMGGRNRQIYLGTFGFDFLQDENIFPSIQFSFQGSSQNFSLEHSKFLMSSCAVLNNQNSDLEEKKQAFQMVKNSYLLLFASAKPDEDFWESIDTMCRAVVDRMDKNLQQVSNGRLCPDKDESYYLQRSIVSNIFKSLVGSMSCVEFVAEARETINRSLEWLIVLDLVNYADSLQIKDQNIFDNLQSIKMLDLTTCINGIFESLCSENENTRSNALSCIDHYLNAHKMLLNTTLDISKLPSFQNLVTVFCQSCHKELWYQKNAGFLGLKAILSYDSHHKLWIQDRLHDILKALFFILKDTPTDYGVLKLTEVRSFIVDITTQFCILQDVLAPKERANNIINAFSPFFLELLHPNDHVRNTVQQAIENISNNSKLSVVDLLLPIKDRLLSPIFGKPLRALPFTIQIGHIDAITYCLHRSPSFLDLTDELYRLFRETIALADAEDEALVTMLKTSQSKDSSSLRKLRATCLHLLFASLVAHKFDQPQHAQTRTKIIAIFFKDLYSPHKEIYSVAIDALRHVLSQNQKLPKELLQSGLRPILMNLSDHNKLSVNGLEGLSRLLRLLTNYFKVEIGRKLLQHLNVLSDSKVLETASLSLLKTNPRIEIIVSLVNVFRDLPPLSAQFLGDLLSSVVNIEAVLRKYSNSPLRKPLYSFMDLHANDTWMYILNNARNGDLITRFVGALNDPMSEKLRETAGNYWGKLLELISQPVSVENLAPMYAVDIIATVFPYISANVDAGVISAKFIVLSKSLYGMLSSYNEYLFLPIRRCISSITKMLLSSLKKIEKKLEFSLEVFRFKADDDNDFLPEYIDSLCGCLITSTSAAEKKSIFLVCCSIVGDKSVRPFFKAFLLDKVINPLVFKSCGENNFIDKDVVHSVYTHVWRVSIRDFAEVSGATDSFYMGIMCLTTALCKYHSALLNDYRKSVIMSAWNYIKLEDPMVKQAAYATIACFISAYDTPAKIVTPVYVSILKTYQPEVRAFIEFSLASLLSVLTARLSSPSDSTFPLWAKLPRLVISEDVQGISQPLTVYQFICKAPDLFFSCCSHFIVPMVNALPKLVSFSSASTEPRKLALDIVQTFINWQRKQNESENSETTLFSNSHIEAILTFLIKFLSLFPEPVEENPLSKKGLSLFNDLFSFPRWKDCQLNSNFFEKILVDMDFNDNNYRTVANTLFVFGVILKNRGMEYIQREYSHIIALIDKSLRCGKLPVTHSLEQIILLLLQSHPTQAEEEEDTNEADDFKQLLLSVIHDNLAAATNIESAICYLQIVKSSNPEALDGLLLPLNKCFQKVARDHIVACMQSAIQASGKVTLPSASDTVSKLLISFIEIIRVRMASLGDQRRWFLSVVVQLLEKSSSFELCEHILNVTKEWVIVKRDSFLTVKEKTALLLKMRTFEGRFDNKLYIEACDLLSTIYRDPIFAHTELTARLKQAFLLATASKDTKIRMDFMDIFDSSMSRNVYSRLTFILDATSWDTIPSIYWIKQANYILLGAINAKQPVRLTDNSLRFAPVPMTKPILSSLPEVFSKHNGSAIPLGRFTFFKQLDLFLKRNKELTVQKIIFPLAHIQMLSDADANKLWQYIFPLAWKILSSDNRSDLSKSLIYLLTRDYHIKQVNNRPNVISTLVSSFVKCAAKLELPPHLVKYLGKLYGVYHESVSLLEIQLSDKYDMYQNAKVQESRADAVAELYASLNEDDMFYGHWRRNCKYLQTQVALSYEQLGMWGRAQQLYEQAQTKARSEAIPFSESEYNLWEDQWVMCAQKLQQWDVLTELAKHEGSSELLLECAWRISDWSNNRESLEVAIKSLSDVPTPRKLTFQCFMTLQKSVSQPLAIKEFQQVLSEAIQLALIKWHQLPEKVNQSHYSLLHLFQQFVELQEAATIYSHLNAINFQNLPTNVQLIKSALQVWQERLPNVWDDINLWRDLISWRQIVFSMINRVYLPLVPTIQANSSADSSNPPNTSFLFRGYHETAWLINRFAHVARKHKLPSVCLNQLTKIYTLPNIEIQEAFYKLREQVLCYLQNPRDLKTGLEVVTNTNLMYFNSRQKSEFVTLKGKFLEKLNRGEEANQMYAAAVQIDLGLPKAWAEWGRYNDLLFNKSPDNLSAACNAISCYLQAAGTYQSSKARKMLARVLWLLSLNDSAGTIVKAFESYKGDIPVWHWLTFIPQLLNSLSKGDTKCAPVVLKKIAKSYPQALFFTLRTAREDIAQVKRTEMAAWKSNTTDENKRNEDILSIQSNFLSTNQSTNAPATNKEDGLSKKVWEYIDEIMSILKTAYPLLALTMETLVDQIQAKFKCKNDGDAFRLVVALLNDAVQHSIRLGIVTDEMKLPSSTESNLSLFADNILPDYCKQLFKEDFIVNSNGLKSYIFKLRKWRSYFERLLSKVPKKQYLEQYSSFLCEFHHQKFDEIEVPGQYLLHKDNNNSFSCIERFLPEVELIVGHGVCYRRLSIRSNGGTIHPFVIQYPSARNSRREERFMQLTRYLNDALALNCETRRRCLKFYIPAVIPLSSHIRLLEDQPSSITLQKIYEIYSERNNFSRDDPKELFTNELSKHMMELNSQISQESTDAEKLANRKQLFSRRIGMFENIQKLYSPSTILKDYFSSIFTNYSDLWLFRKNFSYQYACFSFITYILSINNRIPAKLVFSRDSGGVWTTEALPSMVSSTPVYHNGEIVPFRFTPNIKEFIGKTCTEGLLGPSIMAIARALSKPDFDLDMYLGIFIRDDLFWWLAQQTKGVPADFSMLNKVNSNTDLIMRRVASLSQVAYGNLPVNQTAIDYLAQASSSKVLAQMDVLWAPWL

ratio to parent	Substance
0.02	Spt20 (S. pombe) (from UniProt O14174) FIEN>AAAA (HIT sequence … changed to …)
0.51	Spt20 (S. pombe) (from UniProt O14174) RRKR>AAAA (HIT sequence … changed to …)
